Literature values, collected in article PMC7556843.

Experiments:
[1] = target: linear tetraubiquitin (Ub4) (Homo sapiens) (UniProt P0CG47)
[2] = target: linear diubiquitin (Ub2) (Homo sapiens) (UniProt P0CG47)

NEMO 242-419, sequence (Q9Y6K9 242-419): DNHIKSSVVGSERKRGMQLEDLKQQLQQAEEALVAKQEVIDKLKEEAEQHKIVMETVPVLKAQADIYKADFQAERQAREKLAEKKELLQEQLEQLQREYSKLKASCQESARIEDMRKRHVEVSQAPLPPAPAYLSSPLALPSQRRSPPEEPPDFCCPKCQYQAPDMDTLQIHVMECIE

- Kd [1]: 300 nM
- Kd [2]: 3000 nM
Substance: NEMO 242-419 (from UniProt Q9Y6K9)
